Experiments:
[1] = target: Pfs230D1 G605R variant, 6xHis, from Expi293 cells (P. falciparum, UniProt P68874, G605R); assay: BLI
[2] = target: Pfs230D1 D714N variant, 6xHis, from Expi293 cells (P. falciparum, UniProt P68874); assay: BLI
[3] = target: Pfs230 domain 1 (Pfs230D1), wild-type, 6xHis, from Expi293 cells (P. falciparum, UniProt P68874); assay: BLI
[4] = target: Pfs230D1 G605S variant, 6xHis, from Expi293 cells (P. falciparum, UniProt P68874, G605S); assay: BLI
Biotinylated Pfs230D1 = Biotinylated Pfs230D1 (Plasmodium falciparum 3D7, UniProt P68874, biotin (site not stated)); assay: BLI
[5] = target: Pfs230D1D2 (first two 6-Cys domains of Pfs230), 6xHis (Plasmodium falciparum 3D7, UniProt P68874); assay: crystal structure

Row | Binder | Kd [1] [nM] | koff [1] [s⁻¹] | kon [1] [M⁻¹ s⁻¹] | Kd [2] [nM] | koff [2] [s⁻¹] | kon [2] [M⁻¹ s⁻¹] | Kd [3] [nM] | koff [3] [s⁻¹] | kon [3] [M⁻¹ s⁻¹] | Kd [4] [nM] | koff [4] [s⁻¹] | kon [4] [M⁻¹ s⁻¹] | binding result (Biotinylated Pfs230D1) | binding result [5]
1 | 230AL-37 IgG (antibody, V domains shown) VH: QVQLVESGGGVVQPGGSLRLSCTASGLIFNKYGIYWVRQAPGKGLEWVAFIRYDGTNQFYADSVKGRFTISRDNSKNKVYLQMNSLRAEDTALYYCAKDRGSIIVFDHWGQGTLVTVSS VL: EIVLTQSPATLSLSPGERVTLSCRASQAVGIYLAWYQQKPGQAPRLLIYHVSKRDTGVPDRFSGSGSGTDFTLTISSLEPEDFAVYYCQQHRNWPPITFGQGTRLEIK | 5.01 | 0.000426 | 85100 | 15 | 0.00422 | 291000 | 0.34 | 0.000181 | 538000 | 0.65 | 0.000147 | 214000 | – | –
2 | 230AS-73 scFv (scFv, V domains shown) VH: QVQLQQWGAGLLKPSETLSLTCAVSGASFSGYSWTWIRQSPGKGLEWIGEIDYRGSTNYNPSLKSRVTMSVDTPKNQFSLNLTSLTAADTAIYYCAKGYGGVTLVRGAKINWFDPWGQGTLVTVSS VL: EIVLTQSPGTLSLSPGERATLSCRASQSVTSRYLAWYQQKPGQAPRLLIFGASSRATGIPDRFSGSGSGTDFTLTISRLEPEDFAVYFCQQYAKSPWTFGQGTKVEIK | – | – | – | – | – | – | – | – | – | – | – | – | binds | binds
3 | 230AL-37 scFv (scFv, V domains shown) VH: QVQLVESGGGVVQPGGSLRLSCTASGLIFNKYGIYWVRQAPGKGLEWVAFIRYDGTNQFYADSVKGRFTISRDNSKNKVYLQMNSLRAEDTALYYCAKDRGSIIVFDHWGQGTLVTVSS VL: EIVLTQSPATLSLSPGERVTLSCRASQAVGIYLAWYQQKPGQAPRLLIYHVSKRDTGVPDRFSGSGSGTDFTLTISSLEPEDFAVYYCQQHRNWPPITFGQGTRLEIK | – | – | – | – | – | – | – | – | – | – | – | – | – | binds

Source: publication PMC9989938 (Immunity, 2023)
